Columns and labels:
[1] = molecular target: T1, recombinant protein of the extracellular region of hTROP-2 (human); test: ELISA of free antibody after equilibration with antigen in solution
T1 sequence: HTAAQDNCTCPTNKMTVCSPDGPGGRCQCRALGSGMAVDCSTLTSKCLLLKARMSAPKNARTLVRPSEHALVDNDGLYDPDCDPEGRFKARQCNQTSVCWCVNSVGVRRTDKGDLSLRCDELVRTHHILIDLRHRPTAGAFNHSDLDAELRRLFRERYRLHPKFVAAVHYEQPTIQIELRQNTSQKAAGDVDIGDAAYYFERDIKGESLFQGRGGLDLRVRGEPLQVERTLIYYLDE

Table 11 peptide No. 17 = molecular target: T2, Table 11 peptide No. 17 (human); test: PEPSCAN CLIPS peptide ELISA
T2 peptide: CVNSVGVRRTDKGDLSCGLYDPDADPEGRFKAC

Table 11 peptide No. 22 = molecular target: T3, Table 11 peptide No. 22 (human); test: PEPSCAN CLIPS peptide ELISA
T3 peptide: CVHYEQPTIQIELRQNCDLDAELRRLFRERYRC

Table 11 peptide No. 2 = molecular target: T4, Table 11 peptide No. 2 (human); test: PEPSCAN CLIPS peptide ELISA
T4 peptide: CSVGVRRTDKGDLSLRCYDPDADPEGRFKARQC

Table 11 peptide No. 18 = molecular target: T5, Table 11 peptide No. 18 (human); test: PEPSCAN CLIPS peptide ELISA
T5 peptide: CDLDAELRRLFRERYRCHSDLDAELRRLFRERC

Table 11 peptide No. 7 = molecular target: T6, Table 11 peptide No. 7 (human); test: PEPSCAN CLIPS peptide ELISA
T6 peptide: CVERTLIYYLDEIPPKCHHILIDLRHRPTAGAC

Table 11 peptide No. 20 = molecular target: T7, Table 11 peptide No. 20 (human); test: PEPSCAN CLIPS peptide ELISA
T7 peptide: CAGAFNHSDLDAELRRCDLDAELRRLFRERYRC

Table 11 peptide No. 23 = molecular target: T8, Table 11 peptide No. 23 (human); test: PEPSCAN CLIPS peptide ELISA
T8 peptide: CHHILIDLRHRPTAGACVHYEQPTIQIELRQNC

Table 11 peptide No. 14 = molecular target: T9, Table 11 peptide No. 14 (human); test: PEPSCAN CLIPS peptide ELISA
T9 peptide: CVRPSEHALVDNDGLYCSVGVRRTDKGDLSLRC

Table 11 peptide No. 3 = molecular target: T10, Table 11 peptide No. 3 (human); test: PEPSCAN CLIPS peptide ELISA
T10 peptide: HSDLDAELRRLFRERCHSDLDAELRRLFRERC

Table 11 peptide No. 19 = molecular target: T11, Table 11 peptide No. 19 (human); test: PEPSCAN CLIPS peptide ELISA
T11 peptide: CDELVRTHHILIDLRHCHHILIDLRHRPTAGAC

Table 11 peptide No. 24 = Table 11 peptide No. 24 (human); test: PEPSCAN CLIPS peptide ELISA
Table 11 peptide No. 24 (human), sequence (peptide, as listed by the source): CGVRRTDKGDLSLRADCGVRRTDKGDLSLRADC

Table 11 peptide No. 1 = molecular target: T12, Table 11 peptide No. 1 (human, not fully specified); test: PEPSCAN CLIPS peptide ELISA
T12 peptide: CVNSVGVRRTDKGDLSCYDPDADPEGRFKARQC

Table 11 peptide No. 25 = molecular target: T13, Table 11 peptide No. 25 (human); test: PEPSCAN CLIPS peptide ELISA
T13 peptide: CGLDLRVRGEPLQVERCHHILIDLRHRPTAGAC

Table 11 peptide No. 4 = molecular target: T14, Table 11 peptide No. 4 (human); test: PEPSCAN CLIPS peptide ELISA
T14 peptide: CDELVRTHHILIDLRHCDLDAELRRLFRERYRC

Table 11 peptide No. 6 = molecular target: T15, Table 11 peptide No. 6 (human); test: PEPSCAN CLIPS peptide ELISA
T15 peptide: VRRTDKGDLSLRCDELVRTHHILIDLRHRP

Table 11 peptide No. 12 = molecular target: T16, Table 11 peptide No. 12 (human); test: PEPSCAN CLIPS peptide ELISA
T16 peptide: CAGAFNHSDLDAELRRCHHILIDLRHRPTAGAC

Table 11 peptide No. 15 = molecular target: T17, Table 11 peptide No. 15 (human); test: PEPSCAN CLIPS peptide ELISA
T17 peptide: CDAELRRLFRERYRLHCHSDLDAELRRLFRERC

Table 11 peptide No. 9 = molecular target: T18, Table 11 peptide No. 9 (human); test: PEPSCAN CLIPS peptide ELISA
T18 peptide: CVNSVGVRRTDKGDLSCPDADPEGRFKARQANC

Table 11 peptide No. 8 = molecular target: T19, Table 11 peptide No. 8 (human); test: PEPSCAN CLIPS peptide ELISA
T19 peptide: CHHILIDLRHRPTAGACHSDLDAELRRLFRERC

Table 11 peptide No. 26 = molecular target: T20, Table 11 peptide No. 26 (human); test: PEPSCAN CLIPS peptide ELISA
T20 peptide: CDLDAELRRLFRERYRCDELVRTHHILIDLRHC

Table 11 peptide No. 10 = molecular target: T21, Table 11 peptide No. 10 (human); test: PEPSCAN CLIPS peptide ELISA
T21 peptide: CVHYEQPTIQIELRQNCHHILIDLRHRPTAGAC

Table 11 peptide No. 13 = molecular target: T22, Table 11 peptide No. 13 (human); test: PEPSCAN CLIPS peptide ELISA
T22 peptide: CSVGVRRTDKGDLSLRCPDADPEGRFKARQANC

Table 11 peptide No. 11 = molecular target: T23, Table 11 peptide No. 11 (human); test: PEPSCAN CLIPS peptide ELISA
T23 peptide: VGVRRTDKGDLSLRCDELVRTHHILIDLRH

Table 11 peptide No. 16 = Table 11 peptide No. 16 (human); test: PEPSCAN CLIPS peptide ELISA
Table 11 peptide No. 16 (human), sequence (peptide, as listed by the source): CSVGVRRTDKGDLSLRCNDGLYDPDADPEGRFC

Table 11 peptide No. 21 = molecular target: T24, Table 11 peptide No. 21 (human); test: PEPSCAN CLIPS peptide ELISA
T24 peptide: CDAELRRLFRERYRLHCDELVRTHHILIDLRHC

human TROP-2 (hTROP-2) [2] = molecular target: T25, human TROP-2 (hTROP-2) (human); test: FACS on BxPC-3 cells
T25 chain: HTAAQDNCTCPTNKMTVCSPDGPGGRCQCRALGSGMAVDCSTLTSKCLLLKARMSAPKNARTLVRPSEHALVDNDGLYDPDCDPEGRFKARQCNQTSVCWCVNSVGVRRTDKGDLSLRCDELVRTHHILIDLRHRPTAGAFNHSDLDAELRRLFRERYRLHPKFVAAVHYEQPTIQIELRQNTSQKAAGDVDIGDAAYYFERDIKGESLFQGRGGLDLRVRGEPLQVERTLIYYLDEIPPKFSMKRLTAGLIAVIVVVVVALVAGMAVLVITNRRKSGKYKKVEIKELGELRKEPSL

human TROP-2 (hTROP-2) [3] = molecular target: T25, human TROP-2 (hTROP-2); test: FACS on PK-59 cells

B1: anti-hTROP-2 monoclonal antibody T6-16 (antibody, V domains shown)
VH: EVQLQQSGPELVKPGASVKISCKASGYTFTDYNMHWVKQSHGKNLEWIGYIYPYNGGTGYNQRFKSRATMTVDKSSSTAYMELRSLTSDDSAVYYCAREDYGSSPSYAMDYWGQGTSVIVSS
VL: DVVMTQTPLSLPVSLGDQASISCRSSQSLVHGNGNTYLHWYLQKPGQSPKLLIYKVSNRFSGVPDRFSGSGSGTDFTLKISRVEAEDLGVYFCSQTTHVPTFGSGTKLEIK
[1]
  Kd: 4.3 pM
Table 11 peptide No. 17
  binding of T6-16: 553
Table 11 peptide No. 22
  binding of T6-16: 526
Table 11 peptide No. 2
  binding of T6-16: 786
Table 11 peptide No. 18
  binding of T6-16: 534
Table 11 peptide No. 7
  binding of T6-16: 626
Table 11 peptide No. 20
  binding of T6-16: 529
Table 11 peptide No. 23
  binding of T6-16: 524
Table 11 peptide No. 14
  binding of T6-16: 573
Table 11 peptide No. 3
  binding of T6-16: 714
Table 11 peptide No. 19
  binding of T6-16: 534
Table 11 peptide No. 24
  binding of T6-16: 524
Table 11 peptide No. 1
  binding of T6-16: 1070
Table 11 peptide No. 25
  binding of T6-16: 521
Table 11 peptide No. 4
  binding of T6-16: 713
Table 11 peptide No. 6
  binding of T6-16: 670
Table 11 peptide No. 12
  binding of T6-16: 592
Table 11 peptide No. 15
  binding of T6-16: 566
Table 11 peptide No. 9
  binding of T6-16: 611
Table 11 peptide No. 8
  binding of T6-16: 620
Table 11 peptide No. 26
  binding of T6-16: 516
Table 11 peptide No. 10
  binding of T6-16: 602
Table 11 peptide No. 13
  binding of T6-16: 585
Table 11 peptide No. 11
  binding of T6-16: 601
Table 11 peptide No. 16
  binding of T6-16: 559
Table 11 peptide No. 21
  binding of T6-16: 527
Human TROP-2 (hTROP-2) [2]
  mean fluorescence intensity, times that with PE-labeled anti-mouse IgG only: 25 times
Human TROP-2 (hTROP-2) [3]
  mean fluorescence intensity, times that with PE-labeled anti-mouse IgG only: 59 times
